# Values quoted from earlier work, collected in PMC9265785.
# Biological target: Pex5 (Saccharomyces cerevisiae) (UniProt P35056)
# UniProt P35056, sequence (P35056 whole entry): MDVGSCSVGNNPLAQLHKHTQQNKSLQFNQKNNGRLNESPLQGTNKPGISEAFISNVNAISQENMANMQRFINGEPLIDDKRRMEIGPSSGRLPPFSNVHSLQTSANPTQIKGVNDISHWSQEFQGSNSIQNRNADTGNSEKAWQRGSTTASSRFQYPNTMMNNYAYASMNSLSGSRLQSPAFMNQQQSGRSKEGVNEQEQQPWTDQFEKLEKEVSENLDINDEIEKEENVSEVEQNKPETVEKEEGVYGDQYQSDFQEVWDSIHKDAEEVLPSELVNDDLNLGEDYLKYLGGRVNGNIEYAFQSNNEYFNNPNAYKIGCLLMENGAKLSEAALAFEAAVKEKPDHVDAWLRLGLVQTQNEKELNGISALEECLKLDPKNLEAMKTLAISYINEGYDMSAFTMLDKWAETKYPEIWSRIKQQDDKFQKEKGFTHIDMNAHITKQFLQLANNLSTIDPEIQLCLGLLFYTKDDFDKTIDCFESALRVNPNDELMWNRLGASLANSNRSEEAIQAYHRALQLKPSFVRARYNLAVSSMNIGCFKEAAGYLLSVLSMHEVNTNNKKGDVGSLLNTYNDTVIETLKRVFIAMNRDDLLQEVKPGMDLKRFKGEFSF
substance,measurement,value
Pex1 (from UniProt P24004),Kd,1000 nM
